In this test the target is T1, recombinant human C1r2s2 tetramer (human, UniProt P09871 16-688; P00736 18-705).
T1 construct: Heterotetramer of two C1r and two C1s chains, co-expressed in FreeStyle293-F cells; also called human C1r2s2s
T1 chain 1: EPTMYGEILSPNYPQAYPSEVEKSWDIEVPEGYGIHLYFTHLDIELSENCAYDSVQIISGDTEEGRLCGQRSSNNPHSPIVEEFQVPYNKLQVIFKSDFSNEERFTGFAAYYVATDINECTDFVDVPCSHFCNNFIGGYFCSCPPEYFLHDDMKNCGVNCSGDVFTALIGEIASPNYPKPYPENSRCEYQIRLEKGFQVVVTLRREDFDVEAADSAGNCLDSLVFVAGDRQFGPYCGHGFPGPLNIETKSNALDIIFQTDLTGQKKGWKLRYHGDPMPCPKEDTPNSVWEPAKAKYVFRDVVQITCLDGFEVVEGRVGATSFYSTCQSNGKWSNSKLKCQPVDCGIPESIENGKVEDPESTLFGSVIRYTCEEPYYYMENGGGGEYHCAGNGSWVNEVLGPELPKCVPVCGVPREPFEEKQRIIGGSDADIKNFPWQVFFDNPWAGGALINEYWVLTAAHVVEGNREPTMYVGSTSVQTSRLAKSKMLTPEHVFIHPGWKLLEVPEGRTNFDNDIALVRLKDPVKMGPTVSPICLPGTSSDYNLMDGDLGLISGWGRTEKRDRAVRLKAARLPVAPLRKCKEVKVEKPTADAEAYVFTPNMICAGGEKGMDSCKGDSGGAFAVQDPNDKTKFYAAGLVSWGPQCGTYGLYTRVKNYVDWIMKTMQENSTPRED
T1 chain 2: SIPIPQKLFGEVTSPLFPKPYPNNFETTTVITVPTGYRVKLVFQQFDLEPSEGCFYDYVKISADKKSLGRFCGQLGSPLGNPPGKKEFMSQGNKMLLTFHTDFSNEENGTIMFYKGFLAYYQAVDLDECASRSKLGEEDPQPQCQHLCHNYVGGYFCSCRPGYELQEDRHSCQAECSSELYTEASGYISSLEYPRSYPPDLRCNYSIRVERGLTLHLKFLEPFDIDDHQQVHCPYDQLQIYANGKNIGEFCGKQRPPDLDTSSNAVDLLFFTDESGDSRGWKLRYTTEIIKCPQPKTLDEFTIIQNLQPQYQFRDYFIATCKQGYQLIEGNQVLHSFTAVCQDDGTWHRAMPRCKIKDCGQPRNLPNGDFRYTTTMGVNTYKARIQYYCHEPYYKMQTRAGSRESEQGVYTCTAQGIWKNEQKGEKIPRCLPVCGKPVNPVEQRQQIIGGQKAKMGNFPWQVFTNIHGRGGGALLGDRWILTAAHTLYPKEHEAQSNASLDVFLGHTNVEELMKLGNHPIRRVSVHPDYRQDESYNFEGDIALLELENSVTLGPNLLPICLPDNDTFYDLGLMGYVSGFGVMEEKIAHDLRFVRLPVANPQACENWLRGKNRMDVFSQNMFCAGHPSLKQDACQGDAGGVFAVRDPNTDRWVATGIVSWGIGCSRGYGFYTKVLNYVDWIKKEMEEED
Nature of the test: SPR (Biacore), pH5.8*: dissociation at pH5.8 after association and dissociation at pH7.4, 37 C, Scrubber fit. Here is the method: The kinetic parameters of anti-C1s antibodies against recombinant human C1s (as described in PCT/JP2018/042054), human C1r2s2, and cyno C1r2s2 His/Flag (also referred as cyno C1r2s2 in the Table and Figures) were assessed at pH7.4 and pH5.8, at 37 degrees C. using BIACORE (registered trademark) T200 instrument (GE Healthcare) or BIACORE 4000 (GE Healthcare). ProAG (Pierce) was immobilized onto a CM4 sensorchip using amine coupling kit (GE Healthcare) according to the recommended settings by GE Healthcare. Antibodies and analytes were diluted into the respective running buffers, ACES pH7.4 and pH5.8 (20 mM ACES, 150 mM NaCl, 1.2 mM CaCl₂, 1 mg/ml BSA, 1 mg/ml CMD, 0.05% Tween 20, 0.005 w/v % NaN₃). Each antibody was captured onto the sensor surface by ProA/G. Antibody capture levels were typically 100-200 resonance units (RU). Then, recombinant C1s was injected at concentrations of 25 and 50 nM followed by dissociation at pH7.4 and pH5.8. The surface was regenerated using 10 mM Glycine-HCl, pH1.5. Kinetic parameters at neutral pH conditions and acidic conditions were determined by fitting the sensorgrams with 1:1 binding model using BIACORE (registered trademark) T200 Evaluation software, version 2.0 (GE Healthcare) or BIACORE 4000 Evaluation software. The dissociation rate at pH5.8 (after dissociation at pH7.4, indicated as pH5.8* in TABLE 2) was determined by processing and fitting data using Scrubber 2.0 (BioLogic Software) curve fitting software. The association rate (ka), dissociation rate (kd), binding affinity (KD) at pH7.4 and pH5.8 condition, and dissociation rate (kd) at pH5.8* condition of the antibodies are listed in TABLE 2. Some kinetic parameters of COS0098pHv1 in acidic condition were not correctly calculated because of its weak binding response.
Also, to observe the cross-reactivity of anti-C1s antibodies against human C1r2s2 and cyno C1r2s2 (cyno C1r2s2 His/Flag), BIACORE (registered trademark) kinetics analysis was performed.

B1: COS0098pHv1 (antibody, V domains shown)
VH: QVQLVQSGAEVKKPGSSVKVSCKASGHTFSKYTVSWIRQPPGKGLEWIGIINTGGSAYPATWAKGRVTITADESTSTAYMELSSLRSEDTAVYYCARGAGDTDYTNLWGQGTLVTVSS
VL: DIQMTQSPSSLSASVGDRVTITCQASENIYSALAWYQQKPGQPPKLLIYGASQLESGVPSRFSGSGSGTDFTLTISSLQPEDFATYYCQQYYFTSHTFGQGTKVEIK
notes: Humanized, optimized pH-dependent variant of COS0098bb
With B1, the koff is 0.107 s⁻¹.

B2: COS0098bb (antibody, V domains shown)
VH: QSVEESGGRLVTPGTPLTLTCTVSGFSLTKYTVSWVRQAPGKGLEWIGIINTGGSAYYATWAKGRFTFSKTSTTVDLQITSPTTEDTATYFCARGNGDTDYTNLWGPGTLVTVSS
VL: QVLTQTPSSVSEPVGGTVTINCQASENIYSALAWYQQKPGQPPKLLIYGASNLESGVPSRFKGSGSGTQFTLTISDLECADAATYYCQQYYFTSSTFGGGTKVEIK
notes: Anti-C1s rabbit antibody, parent of COS0098pHv1; the antibody was captured by ProA/G; also called anti-C1s antibody COS0098bb
In the case of B2, the koff worked out at 0.000909 s⁻¹.

The values are drawn from US20230002481A1 (Chugai, published 2023).
